According to publication PMC6166713:

How the values were obtained:
Experiment in all cases: BLI; Octet Red; GST-WASP variants loaded on anti-GST sensors (10 μg/ml), dipped into a dilution range of Cdc42·GMPPNP; 50 mM Tris-HCl pH 7.5, 150 mM NaCl, 1 mM MgCl2, 0.02% Tween 20, 0.1% BSA, 0.05% sodium azide, 25 °C; GST-alone sensors subtracted
[1] = target: GST-WASP(201–321) K225A/K226A (UniProt P42768)
[2] = target: GST-WASP(201–321) K225A/R227A (UniProt P42768)
[3] = target: GST-WASP(201–321) K230A (UniProt P42768)
[4] = target: GST-WASP(201–321) K226A/R227A (UniProt P42768)
[5] = target: GST-WASP(201–321) K230A/K231A (UniProt P42768)
[6] = target: GST-WASP(201–321) K225A (UniProt P42768)
[7] = target: GST-WASP(201–321) K225A/K226A/R227A/K230A/K231A/K232A (UniProt P42768)
[8] = target: GST-WASP(201–321) K225A/K226A/R227A (UniProt P42768)
[9] = target: GST-WASP(201–321) R227A (UniProt P42768)
[10] = target: GST-WASP(201–321) K226A (UniProt P42768)
[11] = target: GST-WASP(201–321) K230A/K232A (UniProt P42768)

Which results are given for “Cdc42 Δ7 Q61L (from UniProt P60953 1-191) (natural protein)”?
Kd [1]: 59.6 nM; koff [1]: 0.0295 s⁻¹; kon [1]: 490000 M⁻¹ s⁻¹; Kd [2]: 81.5 nM; koff [2]: 0.0371 s⁻¹; kon [2]: 456000 M⁻¹ s⁻¹; Kd [3]: 106 nM; koff [3]: 0.0498 s⁻¹; kon [3]: 477000 M⁻¹ s⁻¹; Kd [4]: 74.8 nM; koff [4]: 0.0372 s⁻¹; kon [4]: 497000 M⁻¹ s⁻¹; Kd [5]: 162 nM; koff [5]: 0.0684 s⁻¹; kon [5]: 422000 M⁻¹ s⁻¹; Kd [6]: 83.5 nM; koff [6]: 0.0468 s⁻¹; kon [6]: 671000 M⁻¹ s⁻¹; Kd [7]: 734 nM; koff [7]: 0.145 s⁻¹; kon [7]: 198000 M⁻¹ s⁻¹; Kd [8]: 79.2 nM; koff [8]: 0.042 s⁻¹; kon [8]: 540000 M⁻¹ s⁻¹; Kd [9]: 49 nM; koff [9]: 0.0281 s⁻¹; kon [9]: 630000 M⁻¹ s⁻¹; Kd [10]: 54.4 nM; koff [10]: 0.0338 s⁻¹; kon [10]: 676000 M⁻¹ s⁻¹; Kd [11]: 142 nM; koff [11]: 0.067 s⁻¹; kon [11]: 484000 M⁻¹ s⁻¹
